Positions count from the first letter of the chain named. In names and notes the source's numbering stands.
Legend:
[1] = tested on: rice anthranilate synthase (OASA2 protein); assay: Enzyme Activity Measurement 1: anthranilate synthase activity with 100 mM NH4Cl as amide group donating substrate; type: biochemical; conditions: without tryptophan, FIG. 1 and FIG. 2
Procedure: (§1) The OASA2 protein synthesized by the wheat embryo acellular system was quantified using rabbit anti-OASA2 antibody that had been prepared based on the peptide fragment with the sequence at position 161 to 175 (MDHEKGKVTEQVVDD) of the amino acid sequence of OASA2 protein. A refined sample of OASA2 protein was also used for the quantification. Western blot analysis was performed according to the method of Towbin et al. (Towbin, H., Staehelin, T. and Gordon, J. 1979. Electrophoretic transfer of proteins from polyacrylamide gels to nitrocellulose sheets: procedure and some applications. Proc Natl Acad Sci USA 76: 4350-4354). The estimated quantity of OASA2 protein was used for the correction of enzyme activity, as will be described later.
The OASA2 protein, which is the α subunit of rice anthranilate synthase catalyzes the reaction producing anthranilate from chorismate, using ammonia that originates in the amide group of glutamine supplied by the β subunit.
(§2) As is known, activity of OASA2 protein is under the feedback inhibition by tryptophan. It is therefore necessary to eliminate tryptophan in the protein synthesis reaction mixture, and replace the environment of the expressed protein with a buffer component for AS activity measurement. To this end, the protein synthesis reaction mixture was replaced with buffer A (50 mM Tris-HCl, pH7.6; 0.05 mM EDTA; 2 mM MgCl2; 0.05 mM DTT; 5% glycerol), using Microspin G-25 columns (Amersham Biosciences)<
(§3) Ninety μl of reaction solution (20 mM Tris-HCl, pH 8.3; 100 mM NH4Cl; 0.5 mM chorismate; 10 mM MgCl2) was supplemented with 2.5 μl of crude extract exchanged with buffer, and the reaction mixture was allowed to react for 1 hour at 32° C. The reaction was stopped by adding 10 μl of 1N HCl, and synthesized anthranilate was extracted with 300 μl of ethyl acetate. The yield of anthranilate was measured with Wallac 1420 ARVOsx-FL (Perkin-Elmer Life Sciences Japan. Co., Ltd.) at the excitation wavelength of 355 nm/fluorescence (emission) 460 nm. […]

[2] = tested on: rice anthranilate synthase (OASA2 protein); assay: Enzyme Activity Measurement 2: anthranilate synthase activity in reaction system using the β subunit of rice anthranilate synthase (glutamine); type: biochemical
Procedure: as §1, §2
as §3, with “5” for “100”, “glutamine; 0.2 to 0.8” for “NH4Cl; 0.5”, “C. The preparation of rice anthranilate synthase β subunit and quantification of the product by the Western blot method were performed according to the method of Kanno et al. (Kanno et al. (2004) Plant Molecular Biology 54, 11-22)” for “C.”

[3] = tested on: Yeast TRP2 gene defective mutant strains; assay: Free tryptophan content in yeast TRP2 gene defective mutant strains expressing OASA2 gene; type: cell-based
Source text: Yeasts with a defective TRP2 gene, analogous to OASA2 gene, require tryptophan for growth. It can therefore be said that TRP2 activity is complemented by OASA2 gene if OASA2 gene introduced into the yeast allows for growth without tryptophan. Further, the activity of mutant OASA2 gene can be assayed by causing the yeast to express the mutant OASA2 gene having resistance to tryptophan feedback inhibition and by measuring accumulation of free tryptophan in the organism.
Expression vectors were constructed by performing PCR with the primers below. […] As described above, the N terminus region of the OASA2 protein includes a chloroplast transit signal, and as such the primers were designed to exclude the signal sequence in the product of expression, as in the Split-PCR primers described in Section (2) above. […]
The yeast transformant was separated into single colonies on synthetic complete agar medium (0.67% amino acid-less bactoyeast nitrogen base, uracil-free 0.2% dropout mixture, 2% bactoagar) supplemented with 2% glucose. […] The preparation was then applied to a high-performance liquid chromatography (HPLC) device (the product of Waters, Waters Alliance HPLC FLD System 2695) and free tryptophan content was measured. For HPLC, a Xterra RP18 column (4.6×150 mm) (Waters) was used, and detection of tryptophan was made at the excitation wavelength 278 nm/fluorescence wavelength 348 nm.

B1: N351D: mutant OASA2 protein, substitution of asparatate residue for asparagine residue at position 351 (protein, UniProt Q9XJ29 50-606, looked up, variant N351D)
Anthranilate synthase alpha …: CSAGKPEASAVINGSAAARAAEEDRRRFFEAAERGSGKGNLVPMWECIVSDHLTPVLAYRCLVPEDNMETPSFLFESVEQGPEGTTNVGRYSMVGAHPVMEVVAKEHKVTIMDHEKGKVTEQVVDDPMQIPRSMMEGWHPQQIDQLPDSFTGGWVGFFSYDTVRYVEKKKLPFSGAPQDDRNLPDVHLGLYDDVLVFDNVEKKVYVIHWVNLDRHATTEDAFQDGKSRLNLLLSKVHNSNVPKLSPGFVKLHTRQFGTPLNKSTMTSDEYKNAVMQAKEHIMAGDIFQIVLSQRFERRTYADPFEVYRALRIVNPSPYMAYVQARGCVLVASSPEILTRVRKGKIINRPLAGTVRRGKTEKEDEMQEQQLLSDEKQCAEHIMLVDLGRNDVGKVSKPGSVKVEKLMNIERYSHVMHISSTVSGELDDHLQSWDALRAALPVGTVSGAPKVKAMELIDELEVTRRGPYSGGLGGISFDGDMLIALALRTIVFSTAPSHNTMYSYKDTERRREWVAHLQAGAGIVADSSPDDEQRECENKAAALARAIDLAESAFVDKE
enzyme activity (anthranilate yield) compared with wild type [1]: improved enzyme activity over the wild type

B2: L530A: mutant OASA2 protein, substitution of alanine residue for leucine residue at position 530 (protein, UniProt Q9XJ29 50-606, looked up, variant L530A)
Anthranilate synthase alpha …: B1 Anthranilate synthase alpha … with D302N, L481A
enzyme activity (anthranilate yield) compared with wild type [1]: improved enzyme activity over the wild type

B3: L530D: mutant OASA2 protein, substitution of asparatate residue for leucine residue at position 530 (protein, UniProt Q9XJ29 50-606, looked up, variant L530D)
Anthranilate synthase alpha …: B1 Anthranilate synthase alpha … with D302N, L481D
enzyme activity (anthranilate yield) compared with wild type [1]: improved enzyme activity over the wild type

B4: Wt: wild type rice anthranilate synthase encoded by rice anthranilate synthase gene OASA2 (SEQ ID NO: 1) (protein, listed as Oryza sativa)
chain: MESIAAATFTPSRLAARPATPAAAAAPVRARAAVAAGGRRRTSRRGGVRCSAGKPEASAVINGSAAARAAEEDRRRFFEAAERGSGKGNLVPMWECIVSDHLTPVLAYRCLVPEDNMETPSFLFESVEQGPEGTTNVGRYSMVGAHPVMEVVAKEHKVTIMDHEKGKVTEQVVDDPMQIPRSMMEGWHPQQIDQLPDSFTGGWVGFFSYDTVRYVEKKKLPFSGAPQDDRNLPDVHLGLYDDVLVFDNVEKKVYVIHWVNLDRHATTEDAFQDGKSRLNLLLSKVHNSNVPKLSPGFVKLHTRQFGTPLNKSTMTSDEYKNAVMQAKEHIMAGDIFQIVLSQRFERRTYANPFEVYRALRIVNPSPYMAYVQARGCVLVASSPEILTRVRKGKIINRPLAGTVRRGKTEKEDEMQEQQLLSDEKQCAEHIMLVDLGRNDVGKVSKPGSVKVEKLMNIERYSHVMHISSTVSGELDDHLQSWDALRAALPVGTVSGAPKVKAMELIDELEVTRRGPYSGGLGGISFDGDMLIALALRTIVFSTAPSHNTMYSYKDTERRREWVAHLQAGAGIVADSSPDDEQRECENKAAALARAIDLAESAFVDKE
Relative Ratio (enzyme activity compared with the wild type) ([2]; Vmax relative to Wt): 1.00 fold
enzyme activity with tryptophan relative to 100% enzyme activity without tryptophan ([2]; tryptophan 50 μM, FIG. 3): below 10%
Vmax ([2]; with β subunit, 5 mM glutamine, 0.2 to 0.8 mM chorismate): 215 nmol/min/mg OASA2 Protein
Relative Amount ([3]; free tryptophan relative to yeast expressing Wt OASA2 gene): 1.0 fold
Free Tryptophan Content ([3]; yeast transformant, galactose medium without tryptophan, 30° C., 2 days): 126 ± 7 pmol/mg wet weight

Source: US20080134370A1, “Novel Altered Gene from Rice Anthranilic Acid Synthase Gene Oasa2 and Use Thereof” (priority 2005, published 2008)
